According to paper PMC10480042 (ACS applied materials & interfaces, 2023):

Target: Aβ42
Experiment: SPR

HGVVFLHVTYV [Spike1058 (1058HGVVFLHVTYV1068), fragment of the SARS-CoV-2 spike protein]
Kd: 82.6 nM
